Earlier results on one molecule are cited in paper PMC3728333, “Development of an Epidermal Growth Factor Derivative with EGFR Blocking Activity” (PLoS ONE, 2013).

Data set [1] relates to EGFR-positive breast cancer cells. From the text:
(§1) Moreover, EGFt could also be used as a targeted toxin delivery agent. In this respect, we are currently developing ^111In–DTPA–EGFt as a potential Auger electron-emitting radiotherapeutic for EGFR-positive breast cancer.

Data set [2] relates to EGFR-positive breast cancer. The note with it: ref [44], [45].
From the text: as §1

B1: ^111In-DTPA-hEGF: ^111In-DTPA-hEGF, Kd value obtained from previous work (conjugate, UniProt P01133 23-1207, looked up)
Pro-epidermal growth factor: PQHWSCPEGTLAGNGNSTCVGPAPFLIFSHGNSIFRIDTEGTNYEQLVVDAGVSVIMDFHYNEKRIYWVDLERQLLQRVFLNGSRQERVCNIEKNVSGMAINWINEEVIWSNQQEGIITVTDMKGNNSHILLSALKYPANVAVDPVERFIFWSSEVAGSLYRADLDGVGVKALLETSEKITAVSLDVLDKRLFWIQYNREGSNSLICSCDYDGGSVHISKHPTQHNLFAMSLFGDRIFYSTWKMKTIWIANKHTGKDMVRINLHSSFVPLGELKVVHPLAQPKAEDDTWEPEQKLCKLRKGNCSSTVCGQDLQSHLCMCAEGYALSRDRKYCEDVNECAFWNHGCTLGCKNTPGSYYCTCPVGFVLLPDGKRCHQLVSCPRNVSECSHDCVLTSEGPLCFCPEGSVLERDGKTCSGCSSPDNGGCSQLCVPLSPVSWECDCFPGYDLQLDEKSCAASGPQPFLLFANSQDIRHMHFDGTDYGTLLSQQMGMVYALDHDPVENKIYFAHTALKWIERANMDGSQRERLIEEGVDVPEGLAVDWIGRRFYWTDRGKSLIGRSDLNGKRSKIITKENISQPRGIAVHPMAKRLFWTDTGINPRIESSSLQGLGRLVIASSDLIWPSGITIDFLTDKLYWCDAKQSVIEMANLDGSKRRRLTQNDVGHPFAVAVFEDYVWFSDWAMPSVMRVNKRTGKDRVRLQGSMLKPSSLVVVHPLAKPGADPCLYQNGGCEHICKKRLGTAWCSCREGFMKASDGKTCLALDGHQLLAGGEVDLKNQVTPLDILSKTRVSEDNITESQHMLVAEIMVSDQDDCAPVGCSMYARCISEGEDATCQCLKGFAGDGKLCSDIDECEMGVPVCPPASSKCINTEGGYVCRCSEGYQGDGIHCLDIDECQLGEHSCGENASCTNTEGGYTCMCAGRLSEPGLICPDSTPPPHLREDDHHYSVRNSDSECPLSHDGYCLHDGVCMYIEALDKYACNCVVGYIGERCQYRDLKWWELRHAGHGQQQKVIVVAVCVVVLVMLLLLSLWGAHYYRTQKLLSKNPKNPYEESSRDVRSRRPADTEDGMSSCPQPWFVVIKEHQDLKNGGQPVAGEDGQAADGSMQPTSWRQEPQLCGMGTEQGCWIPVSSDKGSCPQVMERSFHMPSYGTQTLEGGVEKPHSLLSANPLWQQRALDPPHQMELTQ
modifications: Pro-epidermal growth factor 111In-DTPA
Consider B1, for which the “cytotoxic effects in vitro” value in data set [1] is “potent cytotoxic effects in vitro”. Moreover, the “tumour growth inhibition in vivo” value in data set [2] was “tumour growth-inhibition in vivo”.
